The test deals with T1, human BTLA (B and T lymphocyte attenuator), BTLA isoform 1 precursor (Homo sapiens) (human, UniProt Q7Z6A9 31-289).
T1 construct: BTLA was presented on CD3+ T cells of PBMC, on COS cells transfected with human BTLA in p3xFlag-myc-CMV25 (this construct may carry tags; not described), and on L-BTLA fibroblasts stably transfected with human BTLA; also called CD272
Put plainly: flow cytometry on CD3+ T cells among PBMC, 0.01-10 ug/ml. The method, then:
T cells (CD3+) among PBMC were stained for BTLA with the anti BTLA mAbs at various concentration (from 0.01 μg/ml to 10μ,g/ml). […] Then COS transfected with human BTLA were incubated with the anti BTLA mAbs and then with HVEM-Fc before staining with an anti human IgG Fc PE. The percentage of inhibition was determined as 100-maximum of percentage of stained cells. […] The median fluorescence intensity of cells was determined. […] On the other hand, 7.1 and 8.2 antibodies were not able to compete against 4C7 mAb at a high dose (FIG. 3). […] Finally, γδT were obtained after a positive sorting of fresh purified PBMC and stained for Cell Trace Violet to follow the proliferation. Cells were incubated 5 days in IL2/Zometa with the different mAbs prior to analysis by flow cytometry. The addition of antibodies in the culture of the γδT lead to an upregulation of their proliferation. Cells incubated with the HVEM 18.10 mAb disclosed in WO2014184360 is able to proliferate more than cells incubated with the mock control (IgG1) (FIG. 4).

Data on 1 molecule can be found in patent US20230183346A1 (INSERM INSTITUT NATIONAL DE LA SANTE ET DE LA RECHERCHE …, published 2023).

B1: 629.3 mAb (antibody, V domains shown)
VH: QVQLRESGPGLVAPSQSLSITCTVSGFSLNTYGVSWVRQPPGKGLEWLGVVWGDGNTNYHSVVISRLTINKDNSKSQVFLKLNSLQTDDTATYYCAKCYGSRFDYAMDYWGQGTSVTVSS
VL: DIVMSQSPSSLAVSIGEQVTMSCKSSQSLLSSRTRKNYLAWYQQRPGQSPKLLIYWASTRESGVPDRFTGSGSGTDFTLTISSVQAEDLAVYYCKQSYNLPTFGGGTRLEIK
notes: Mouse monoclonal antibody, detected with anti-mouse IgG
As to B1, the binding result is listed as “binds”.
